Experiments:
[1] = molecular target: T1, MHC class I molecule HLA-B*0702 (iTopia plate-bound monomer) (biotin (bound to streptavidin-coated plate)); assay: iTopia off-rate assay, 37 C; fit R^2 0.04
T1 construct: Commercial iTopia system; also called B7
Experimental: (§1) The 9 mers were tested for Peptide Binding, Off Rate and Affinity using iTopia Epitope Discovery System in accordance with the manufacturer's instructions. Briefly, 96 well microtitre plates coated with MHC molecules representing different MHC alleles are used to identify candidate peptides. […] Determinations are performed in duplicate using an ELISA plate reader and included allele specific positive controls.
(§2) A one-phase exponential decay curve, with a plateau given equal to 0, was generated using GraphPad Prism® software, which calculated the t1/2 and goodness-of-fit, as measured by r², for each peptide.

[2] = molecular target: T2, MHC class I molecule HLA-A*0301 (iTopia plate-bound monomer) (biotin (bound to streptavidin-coated plate)); assay: iTopia off-rate assay, 37 C; fit R^2 0.87
T2 construct: also called A3
In short: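 9-mer peptides were tested on microtitre plates coated with MHC molecules, following the manufacturer's protocol. Signal was read in duplicate on an ELISA plate reader with allele-specific positive controls. Half-life and r² came from a one-phase exponential decay fit with the plateau fixed at 0.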

[3] = molecular target: T3, MHC class I molecule HLA-A*0201 (iTopia plate-bound monomer) (biotin (bound to streptavidin-coated plate)); assay: iTopia off-rate assay, 37 C; fit R^2 0.83
T3 construct: also called A2
Experimental: as §1, §2

## VLYLNRKGI [5T4 9-mer peptide 187 VLYLNRKGI]
[1]
  t½ half life: 2.9 h
[2]
  t½ half life: 1.4 h
[3]
  t½ half life: 0.6 h
